Broadly, the Kd is the equilibrium constant for the complex coming apart.

The values that follow come from the Immune Epitope Database (IEDB).

One assay concerns the target HLA-A*03:01. In words: IEDB peptide-MHC binding, purified MHC/direct/fluorescence; filed as Kd, often an IC50 or EC50 that approximates it; ≥ and ≤ were set here for values at or beyond the usual limits of such assays. Particulars: source organism: SARS-CoV1.
AITTSNCAK returned a Kd of 646 nM.

Take ALRANSAVK: the Kd amounted to 197 nM.

ASLPTTIAK registered a Kd of 56 nM.

ATFSVPMEK: the dissociation constant Kd stood at 265 nM.

Consider ATNNVFRLK, for which the Kd was determined as 401 nM.

The sequence ATVVIGTSK yielded a Kd of 232 nM.

In turn, AVDPAKAYK returned a Kd of 1670 nM.

AVLQSGFRK: the Kd amounted to 259 nM.

Turning to GTLSYDNLK, the Kd is 365 nM.

In turn, GVAMPNLYK returned a Kd of 60 nM.

ITCVVIPSK gave a Kd of 1880 nM.

For the sequence KCYGVSATK, the Kd was determined as 2070 nM.

KMQRMLLEK had a Kd of 305 nM.

In the case of KVIQPRVEK, the Kd was 595 nM.

The sequence LIGANYLGK came in with a Kd of 999 nM.

Turning to QLFKPLTKK, the Kd turned out to be 215 nM.

Turning to RLYYDSMSY, the Kd was 52 nM.

Regarding SSNVANYQK, the Kd is 442 nM.

SSSLTSLLK had a Kd of 276 nM.

For the sequence VTFQGKFKK, the Kd was 321 nM.

The sequence VVYRGTTTY registered a Kd of 42 nM.

YIFFASFYY returned a Kd of 1180 nM.

The target of the next assay is HLA-A*11:01. The description is as above. The note with it: source organism: SARS-CoV1.
Sequence AITTSNCAK gave a Kd of 54 nM.

As to ALRANSAVK, the Kd worked out at 1760 nM.

Sequence ASLPTTIAK yielded a Kd of 19 nM.

In turn, ATFSVPMEK came in with a Kd of 28 nM.

In turn, ATNNVFRLK came in with a Kd of 233 nM.

On to ATVVIGTSK, for which the Kd came out at 30 nM.

As to AVDPAKAYK, the Kd stood at 124 nM.

The sequence AVLQSGFRK yielded a Kd of 80 nM.

GTLSYDNLK registered a Kd of 48 nM.

Sequence GVAMPNLYK showed a Kd of 73 nM.

ITCVVIPSK returned a Kd of 290 nM.

KCYGVSATK had a Kd of 8380 nM.

For the sequence KLFAAETLK, the Kd was 234 nM.

Sequence KMQRMLLEK gave a Kd of 341 nM.

The sequence KVIQPRVEK came in with a Kd of 168 nM.

LIGANYLGK yielded a Kd of 1470 nM.

In the case of QLFKPLTKK, the Kd was determined as 237 nM.

Consider RLYYDSMSY, for which the Kd stood at 237 nM.

Sequence SSNVANYQK showed a Kd of 23 nM.

Consider SSSLTSLLK, for which the Kd came to 51 nM.

In turn, VTFQGKFKK showed a Kd of 91 nM.

With VVYRGTTTY, the Kd was found to be 117 nM.

For YIFFASFYY, the Kd was found to be 347 nM.
